This data set is described as follows: soluble on expression in E. coli; label from the status in PepcDB or PDB records.
Turning to “MPYPFKLPDLGYPYEALEPHIDAKTMEIHHQKHHGAYVTNLNAALEKYPYLHGVEVEVLLRHLAALPQDIQTAVRNNGGGHLNHSLFWRLLTPGGAKEPVGELKKAIDEQFGGFQALKEKLTQAAMGRFGSGWAWLVKDPFGKLHVLSTPNQDNPVMEGFTPIVGIDVWEHAYYLKYQNRRADYLQAIWNVLNWDVAEEFFKKA”, the “soluble on expression in E. coli” value was “soluble”.

For the sequence “MPYRNCWSKIMKKLINDVQDVLDEQLAGLAKAHPSLTLHQDPVYVTRADAPVAGKVALLSGGGSGHEPMHCGYIGQGMLSGACPGEIFTSPTPDKIFECAMQVDGGEGVLLIIKNYTGDILNFETATELLHDSGVKVTTVVIDDDVAVKDSLYTAGRRGVANTVLIEKLVGAAAERGDSLDACAELGRKLNNQGHSIGIALGACTVPAAGKPSFTLADNEMEFGVGIHGEPGIDRRPFSSLDQTVDEMFDTLLVNGSYHRTLRFWDYQQGSWQEEQQTKQPLQSGDRVIALVNNLGATPLSELYGVYNRLTTRCQQAGLTIERNLIGAYCTSLDMTGFSITLLKVDDETLALWDAPVHTPALNWGK”, the “soluble on expression in E. coli” value is given as “soluble”.

As to “MQADPAIRRFAKKRNKRVDRMILDSNYMHTSIDRYFPNESKRRGRPDIIYLLLEMTQESILNHKNQLRTYVHTRNNQVIRISPITRMPKSYNRFIGLFEDLFEKRIITNNGKELLSMEESSLGDLINSIRRDRTILLHPKGEMRKPSEFISNANILIVIGGFSEGDFISDTSFINERYAIFDQELTIWSVANEMVANYERAVGLT”, the “soluble on expression in E. coli” value is “not soluble”.

Take “MQAGPALMRILPISTIKGKLNEFVDAVSSTQDQITITKNGAPAAVLVGADEWESLQETLYWLAQPGIRESIAEADADIASGRTYGEDEIRAEFGVPRRPHDYKDDDDK”: the “soluble on expression in E. coli” value is reported as “soluble”.

Consider “MQAIQNTQEIRRQADLTKAQWWLQQLCETDRMIVGRKRRDVQKLIHRLLSEPKGTSVPKSSPVNRLFPHPLSFELDPKWPAMDSFYNRISAAMRTIAPKKTASQQVVISCKQLKPAKLDMKTLRQVMEHELAELGDEKLQRMVCSFCYRAQPTHRLYTIEDVIKCQECWRGPFPSRTIFDALITDVAEKWAEKVAKRVECLYGNWDEKLTPMVRMLQNNVLLSEDIAALLRTCTDPHEFKEACEVIIITTIVFYLEYVDFRRSCEALMAIKPTVTYGQLFEIFQIYFPNRAKGIKTGDFL”, for which the “soluble on expression in E. coli” value is “not soluble”.

Regarding “MQDLSGFTVPKGFRGANALKVQLWWAVQATLFAGSPQILYRWRAFLLRLFGAKIGKNVVIRPSVKITYPWKLTVGDYAWVGDDAVLYTLGEINIGAHAVISQKGYLCTGSHDYTSAHFDINAAPIVIGEKCWLATDVFVAPGVTIGHGTVVGARSSVFKSLPANAICRGNPAVVTRQRVQKVTP”, the “soluble on expression in E. coli” value is reported as “not soluble”.

As for “MQDSRPHPHDWNVSTDEAKRIQRRLASEVTERALPDGGETVAGIDVSVRDDTAQAAVSVLRLPELDVVDEATHRCEVPFPYVPGLLSFREMPAVLPALERLHSTPDVFVTDSHGAAHPRRFGLACHLGVLLDAPAIGVAKSILVGAPQGELGPEKGSRVPLVDDGETVGTVLRTRTDVNPVYVSVGHRCTLDGAADLMLDCSPRYKIPEPTRQAHKLSRAEGAAALEHHHHHH”, the “soluble on expression in E. coli” value was “soluble”.

On to “MQEEVNQKTVALSIRTTKLTGKVLAAALGKVVRALQKHHRKALTPQGRQSVKKLMNHYGGKSAMPYVGAPKDFDRIAKEFHVDYAFHKVSPGHYLLFFKANQADAITAAFQKYSAKVLNKEQDKASILGQLRKFTEQIRTQAKEKQRTREAVKDGR”, for which the “soluble on expression in E. coli” value is “not soluble”.

As to “MQELYLLGVVPSRRFEAVVNSLSKTLDGPKTILEFWVVYRPKDVPPNLPRQPDSWLRLCSNIESHDETDTEWSKNTQWSMYLEGNSEPKREDKCGIRPVNRAKLTNGSVTEFVEKMGYEFSHEYIIQGLEYFFFDTTVRIYQTLIPSQQRSIKPPFHPMNEEQPWILHVYTHVADASNQVAMAKAEANLTKVKTLLSAFCDLKNVRL”, the “soluble on expression in E. coli” value was “soluble”.

For “MQFGIFTIGDVTVDPTTGKAPTEGERIHAMTQIALKAEEVGLDVFATGEHHNPPFVPSSPTTHLAYIAAKTEKLLLSTSTTLITTNDPVKIAEDYTFLQHLSGGRVDLMMGRGNTGPVYPWFGKDIHQGIPLAIENYHLLRRLWREDVVNWQGKFRTPLQGYTSTPAPLDGVAPFVWHGSIRSTEIAEQAAFYGDGFFHNNIFWNKEHTAQMVNLYRQRFEHYGHGQADQAIVGLGGQVFIGDSEEEAKKTFRPYFDNAPVYGHGPSLEDFSRLTPLTVGTAEQVIERTMEFADWVGDYQRQLFLIDHAGLPLEMVLDQIERLGHDVVPEVRRRMEERRPDHVPSNPPTHQSLKANRNSPHFQINPGQPTE”, the “soluble on expression in E. coli” value was “not soluble”.

Turning to “MQFPSSYWIESTQLPTFPPLSENIKTKVAVIGAGITGITTAYLLAKEGIDVVLIDSGLILNGTTGHTTAKITAQHDLIYDELINHFGMEKAGLYYESNNHALQFINETVQTYKIDCNFSNEDSYLYTTTDKGLRNLSKEYEAYQKLNIPCDYVQSLSIPIPVQSALVMKNQAQFHPLLYLKTLLAKFVEMGGKVYEQTTAMDVEKGDSPQIITKEGHRITCEYVVSCSHFPLEHHHHHH”, the “soluble on expression in E. coli” value is “not soluble”.

Take “MQFSTLIRVAVFAVLAIATLADYDDNSVGTIPVAVDLDYFSNYVKKGGPQGPLRFGKRRGPSGPLRFGKRSSFHVAPAAEDVASWYQ”: the “soluble on expression in E. coli” value is on record as “not soluble”.

On to “MQGKNTIVTTGDYSIGLLSQTSGNLNTDTIIRVNSDGSVTPSFSDGDDTFIVTAGNHAVGVLACASPGSACACVSSLDEESTADTGSNENNAIAKLDMAKGEITTHGTESYAAYANGTVVKAGDTLDYTNASVTLTDVDITTHGDNAHAIAARQGTVSFNQGEIYTTGPDAAIAKIYNGGTVTLKNTSAVAHQGSGIVLESSINGQEATVDILSGSSLRSANEILYHKDETSNVTITDSEVSSAADVFINNIKGHLTVDATNSKITGSANISTDDNTHTYLSLSDNSTWDIKADSTVSNLTVDNSTVYISRADGRDVEPTRLTITENYVGNNGVLHLRTELDDDNSATDKVVINGNTSGTTRVKVTNAGGSGAYTLNGIEIISVEGESNGEFIKDSRIFAGAYEYSLTRGNTEATNKNWYLTNFQATSGGETNSGGSSAPTVAPTPVLRPEAGSYVANLAAANTLFVMRLNDRAGETRYIDPVTEQERSSRLWLRQIGGHNAWRDSNGQLRTTSHRYVSQLGGDLLTGGFTDSDSWRLGVMAGYARDYNLTHSSVSDYRSKGSVRGYSAGLYATWFADDISKKGAYIDSWAQYSWFKNSVKGDELAYESYSAKGATVSLEAGYGFALNKSFGLEAAKYTWIFQPQAQAIWMGVDHNAHTEANGSRIENDANNNIQTRLGFRTFIRTQEKNSGPHGDDFEPFVEMNWIHNSKDFAVSMNGVKVEQDGVSNLGEIKLGVNGNLNPAASVWGNVGVQLGDNGYNDTAVMVGLKYKF”, for which the “soluble on expression in E. coli” value is “not soluble”.

In the case of “MQGLYIYGEVGRGKTMLMDLFFSCLPQKRKKRAHFNDFMADVHERINIYRQASKDGKTGQKTPILAVVEDLAQEAQVLCFDEFSVTDIADAMVLGRLISALFDKGIFFVATSNVAPDNLYYNGLEHHHHHH”, the “soluble on expression in E. coli” value is reported as “not soluble”.

Turning to “MQHYLLDSNQRLNVSFSKDSVAAYYQCFNQPYRKEVPPLMCASLWPKFDLFKKYANSELILTKSAINQTQKIEVDTIYVGHLEDIECRQTRNITRYTMALTLTKNDQHVITVTQTFIKAMK”, the “soluble on expression in E. coli” value is recorded as “not soluble”.

Consider “MQICQNPSCSNPFNPDGNRFCMSCGQSNFGKLLRNRYRVLGLLGEGGFSKTYAAEDADRLDAPCVIKQFFPQIQGTGQRSKAAEFFKEEAFRLYELGENHTQIPRLLAYFEQGSSLYLVQEFIKGLTLLQEVQQEPFNEEKIRQLLIDLLPVLDFVHFHHVIHRDIKPENIIRRDGDGKLVLIDFGGAKQVTQTSIARQATAIYTLGYAPTEQMAGFACHASDLYALGVTCVRLLTQCLPQQNLYGHIDDGLYDPMNGKWLWQEYLQDRGITISENLSQILDKLLKHLPSERYQSAAEVLHDLQVFTAIVEETQILPNTQTTLVPLAPATQRTKRPLPPLQTFEYEVVTVDTAGRIVNRDRTNTQILVEQLNKDITLEMLSIPGGAYLMGSPNFEGDADERPQHQVAIAPFFMGKYPVTQAQWRAVAGLPKIKQALNPYPSKYKGQNRPVENVSWHEVLEFCARLSEKTGREYRLPSEAEWEYACRAGTTTSFHFGETITPDLANFSDSDIHNIEAKTRYRKETTDVGNFRVANAFGLYDMHGLVWEWCADPWHNNYNGAPTDGSVWEAGGDIYRRVLRGGSWNFGAELCRSASRSWNESDGGLRICGFRVVFSAGLEHHHHHH”, for which the “soluble on expression in E. coli” value is recorded as “soluble”.

Consider “MQILQVRLKNLNSLVGEWEIDFTDPAFVSDGIFSITGPTGAGKTTVLDAICLALYGRTPRLGKVSKSENEIMSRQTGECFAEVTFAAQSGCFRCHWSQHRAHKKPDGELQNPRHELAEADSGKILETRLTEVGRQIEKITGMDFARFTRSMLLAQGEFAAFLQAAPDERAPILEQITGTEIYSRISIRVHETRVSARRELDRLSAGLNGIQPLT”, for which the “soluble on expression in E. coli” value is listed as “not soluble”.

Take “MQITEALISEPGEIRRFVQQAVDHWPNLLAFHFTLYSAEGIYGQQIQTFCSSFHRRVHERITEHNHTVSPSAPVVLRWLREQHEGAQIRCLLLLSQTSICHPRVGVMADEECAQLVDLLQQTWSVISAGGQCRVERCFRVARPGSSGQYVALKTAVQSFMSQVIATIIR”: the “soluble on expression in E. coli” value is “not soluble”.

On to “MQITTTFRHMEQSEALKSYAAEKLERVKKYIDEPITAQVFLTVEKIRHIAEVTLTAKGITIKAAEETNDMYAALDAVIDKIERQLRRYKERLKEHKPSADDRALEIQKSVVTAESIEQRTEPVVIRSKTISIKPMSVEEAVMQMDLLHKDFLVFTDASTEAINVVYRRKDGNYGLIEPQRKLEHHHHHH”, for which the “soluble on expression in E. coli” value was “soluble”.

As to “MQKEMEQDVKRFGQAAWATAIPRLEKLKLMLAQETLQLMRAKELCLNHKRAEIQGKMEDLPEQEKNINVVDELAIQFYEIQLELYEVKFEILKNKEILLTTQLDSLERLIKDEI”, the “soluble on expression in E. coli” value is on record as “soluble”.

For the sequence “MQKETWRFIDSGNASPAFNMALDEALLYWHSEKKIPPVIRFYGWNPATLSVGYFQNIKKEINFEAVHKYNLGFVRRPTGGRGVLHDQELTYSVIVSEEHPEMPATVTEAYRVISEGILQGFRNLGLDAYFAIPRTEKEKESLKNPRSSVCFDAPSWYELVVEGRKVAGSAQTRQKGVILQHGSILLDLDEDKLFDLFLYPSERVRERMQRNFKNKAVAINELIEKRVTMDEARKAFKEGFETGLNIHLEPYELSQEELDFVHHLAETKYASDEWNYKRMAGDPLEHHHHHH”, the “soluble on expression in E. coli” value is “not soluble”.

Regarding “MQKQRMSGQNQKTDKRIAWPIIIMNFTGVYDYEAFARNNKFIWLDCRHLYGTDGYCDREGALALKGMIADYPAEGVHFIDSGNYHYLTKFWTDKLETPFSLIVFDHHPDMQPPLFDNILSCGSWVKDILDHNNNCKKVIIVGASDKLIQAVPKGYERQVRFYSETTLMHEEGWQNFSSGHINGPVYISIDKDVLKPASAATNWDQGSLSLWELEKLLAVILQKEQVVGIDICGECSTTLNLFEEKRETVMDSQANKELLRFIRSSSGLQ”, the “soluble on expression in E. coli” value is on record as “not soluble”.

“MQKRHTNRERYFEEQAQTTRNYYIPYIKEYTGNLPNKVLEVGCGEGGNLLPFAELGCDVIGIDIAASRIEQAQNFFITKRQKGTFIASDIFLLKDLQKHFPLILIHDVIEHIDNKEQFLRNLKKYLSPNGMIFIAFPAWQMPFGGHQQIARSKIISHMPFIHLLPRMLYKRILELFSEQESTVKELLTIKYTRCTIEMFRRVVKQTDYQIVNEQLYFINPHYKIKFGLTPHKLNKTIACIPFIRNVFSTSCFYLIRPT”: the “soluble on expression in E. coli” value is “not soluble”.

The values above are taken from the DeepSol protein solubility set.
